The experiment has as its system Jurkat cells. The experiment is described as follows: Kill switch percent killing in Jurkat cells (flow cytometry). The format is cell-based. To be noted: for percent killing, miniaturized DNCR2 designs fused to caspase-9 with homo-oligomerized NS3a scaffolds: co-expressed with CAR-NS3a, CAR-NS3a-NS3a or dimer-NS3a; for percent killing in the absence of a scaffolded NS3a: danoprevir or grazoprevir treatment, 500 nM. On the procedure:
Kill switch-positive cells (le5) were incubated for 24-48 hours with inducer drug before staining and analysis for death. Conditions were normalized to contain about 50% transduction positive (+) cells by adding untransduced Jurkat or primary T cells in order to get accurate statistics on death.
Flow cytometry was performed on a Ze5 cytometer (Biorad). To determine expression of markers, between 1×10^5-2×10^5 total cells were transferred to a U-bottom 96 well culture dish (Corning). Cells were washed twice with Cell Staining Buffer (BioLegend), then stained with Zombie Violet (1:1000, BioLegend) and ROR1-FC for ROR1-specific CAR constructs (20 min at room temperature). Cells were washed twice in Cell Staining Buffer, then stained with Annexin V-PE (BD) in 1× Annexin V Binding Buffer (BD) for 15 min at room temperature. After staining, cells were washed once with Annexin V Binding Buffer, resuspended in AnneinV Binding Buffer and immediately analyzed.
Flow cytometry data was analyzed using FlowJo 10 (Tree Star). Percent killing was calculated by gating on live cells, then calculating 100*((percent GFP positive DMSO condition)−(percent GFP positive drug condition))/(percent GFP positive DMSO condition).
We first tested for drug-induced death of Jurkat cells by fusing NS3a and DNCR2 separately to the catalytic domain of caspase-9 (NCDC). The small molecule inducible homodimer FKBP-F36V (iCasp9), which is dimerized by AP1903 (rimiducid) and the inducible heterodimer FKBP/rapamycin/FRB dimer (rapaCasp9) were used as controls. Briefly, Jurkat cells expressing NCDC, iCasp9, or rapaCasp9 were exposed to danoprevir, rimiducid or rapamycin, respectively, for 24 hours and analyzed by flow cytometry with gating set to measure killing in the top about 10% of cells expressing the highest amount of the GFP kill switch transduction marker.
To evaluate the kill switch designs of FIG. 8A, constructs were expressed in Jurkat cells, treated with 500 nM danoprevir (DNCR2-casp-9) or 500 nM grazoprevir (GNCR1-casp-9) and cell death measured by percent killing as described herein above.
The miniaturized versions of DNCR2, D1 and D9, were fused to caspase-9 and co-expressed in Jurkat cells with homo-oligomerized NS3a scaffolds. We also evaluated a CAR construct that included an additional copy of NS3a (CAR-2×NS3a). The original DNCR2-casp-9 was used as a control. Jurkat cells expressing different DNCR2 variants fused to caspase-9 along with CAR-NS3a, CAR-NS3a-NS3a, or dimer-NS3a were treated with 500 nM danoprevir and cell death was measured by percent killing as described herein above.
We explored the ability of other human killing domains to induce cell death in Jurkat and primary human T cells. We fused FKBP-F36V to a panel of killing domains that included caspase-9 D330A, caspase-9, caspase-1, caspase-4, and the necroptosis-inducing protein RIPK3. Briefly, Jurkat and primary human CD4+/CD8+ T cells expressing FKBP(F36V)-fused killing domains were treated with 10 nM rimiducid and cell death was measured by percent killing as described herein above.
In general terms: A flow cytometer gives signals particle by particle.

Data on seven molecules can be found in patent publication US20250268938A1, “SMALL MOLECULE-REGULATED CELL SIGNALING EXPRESSION SYSTEM” (Outpace Bio, Inc., priority 2021, published 2025).

B1: CAR-2×NS3a: CAR construct that included an additional copy of NS3a (protein)
chain: CPPCPMFWVLVVVGGVLACYSLLVTVAFIIFWVKRGRKKLLYIFKQPFMRPVQTTQEEDGCSCRFPEEEEGGCELASGSASGSASMKKKGSVVIVGRINLSGDTAYSQQTRGLEGCQETSQTGRDKNQVEGEVQVVSTATQSFLATSINGVLWTVYHGAGTRTIASPKGPVTQMYTNVDKDLVGWQAPQGSRSLTPCTCGSSDLYLVTRHADVIPVRRRGDSRGSLLSPRPISYLKGSAGGPLLCPAGHAVGIFRAAVSTRGVAKAVDFIPVESLETTMRSPGSSGSSGSSGGKKKGSVVIVGRINLSGDTAYSQQTRGLEGCQETSQTGRDKNQVEGEVQVVSTATQSFLATSINGVLWTVYHGAGTRTIASPKGPVTQMYTNVDKDLVGWQAPQGSRSLTPCTCGSSDLYLVTRHADVIPVRRRGDSRGSLLSPRPISYLKGSAGGPLLCPAGHAVGIFRAAVSTRGVAKAVDFIPVESLETTMRSP
As to B1, the “percent killing, miniaturized DNCR2 designs fused to caspase-9 with homo-oligomerized NS3a scaffolds” value (500 nM danoprevir) was “increased killing further”.

B2: GNCR1-casp-9: caspase-9 fused to GNCR1 (protein)
chain: MDIEKLCKKAEEEAKEAQEKADELRQRHPDSQAAEDAEDLANLAVAAVLTACLLAQEHPNADIAKLCIKAASEAAEAASKAAELAQRHPDSQAARDAIKLASQAARAVILAIMLAAENPNADIAKLCIKAASEAAEAASKAAELAQRHPDSQAARDAIKLASQAAEAVERAIWLAAENPNADIAKKCIKAASEAAEEASKAAEEAQRHPDSQKARDEIKEASQKAEEVKERCKSGSASGSGGFGDVGALESLRGNADLAYILSMEPCGHCLIINNVNFCRESGLRTRTGSNIDCEKLRRRFSSLHFMVEVKGDLTAKKMVLALLELAQQDHGALDCCVVVILSHGCQASHLQFPGAVYGTDGCPVSVEKIVNIFNGTSCPSLGGKPKLFFIQACGGEQKDHGFEVASTSPEDESPGSNPEPDATPFQEGLRTFDQLDAISSLPTPSDIFVSYSTFPGFVSWRDPKSGSWYVETLDDIFEQWAHSEDLQSLLLRVANAVSVKGIYKQMPGCFNFLRKKLFFKTS
On to B2, for which the “percent killing in the absence of a scaffolded NS3a” value is recorded as “did not induce Jurkat death”.

B3: D1: minimized version of DNCR2 fused to caspase-9 (protein)
chain: MDDNEAEKLIREAEEAAKDAEEAAERTGDPEVRELARELVRLAKEAAEEVQRNPSSSDVNEALHSIVYAIEAAIFALEAAERTGDPEVRELARELVRLAVEAAEEVQRNPSSRNVEHALMRIVLAIYLAEENLRESGSASGSGGFGDVGALESLRGNADLAYILSMEPCGHCLIINNVNFCRESGLRTRTGSNIDCEKLRRRFSSLHFMVEVKGDLTAKKMVLALLELAQQDHGALDCCVVVILSHGCQASHLQFPGAVYGTDGCPVSVEKIVNIFNGTSCPSLGGKPKLFFIQACGGEQKDHGFEVASTSPEDESPGSNPEPDATPFQEGLRTFDQLAAISSLPTPSDIFVSYSTFPGFVSWRDPKSGSWYVETLDDIFEQWAHSEDLQSLLLRVANAVSVKGIYKQMPGCFNFLRKKLFFKTS
With B3, for the setting “500 nM danoprevir”, the “percent killing, miniaturized DNCR2 designs fused to caspase-9 with homo-oligomerized NS3a scaffolds” value is listed as “comparable Jurkat death as the original DNCR2-casp-9”.

B4: D9: minimized version of DNCR2 fused to caspase-9 (protein)
chain: MELEEVLKDLEEALERLRNEELRRLIEEIAELLRRRDDHSIIYMIEALIFVIEAVERTGDERIEKLLEELIKRIRNGDDDSAIMRIVLAVYLIEENLRESGSASGSGGFGDVGALESLRGNADLAYILSMEPCGHCLIINNVNFCRESGLRTRTGSNIDCEKLRRRFSSLHFMVEVKGDLTAKKMVLALLELAQQDHGALDCCVVVILSHGCQASHLQFPGAVYGTDGCPVSVEKIVNIFNGTSCPSLGGKPKLFFIQACGGEQKDHGFEVASTSPEDESPGSNPEPDATPFQEGLRTFDQLAAISSLPTPSDIFVSYSTFPGFVSWRDPKSGSWYVETLDDIFEQWAHSEDLQSLLLRVANAVSVKGIYKQMPGCFNFLRKKLFFKTS
Regarding B4, the “percent killing, miniaturized DNCR2 designs fused to caspase-9 with homo-oligomerized NS3a scaffolds” value (500 nM danoprevir) is “comparable Jurkat death as the original DNCR2-casp-9”.

B5: DNCR2-casp-9: caspase-9 fused to DNCR2 (protein)
chain: MSSDEEEARELIERAKEAAERAQEAAERTGDPRVRELARELKRLAQEAAEEVKRDPSSSDVNEALKLIVEAIEAAVDALEAAERTGDPEVRELARELVRLAVEAAEEVQRNPSSSDVNEALHSIVYAIEAAIFALEAAERTGDPEVRELARELVRLAVEAAEEVQRNPSSRNVEHALMRIVLAIYLAEENLREAEESGDPEKREKARERVREAVERAEEVQRDPSGWLNHSGSASGSGGFGDVGALESLRGNADLAYILSMEPCGHCLIINNVNFCRESGLRTRTGSNIDCEKLRRRFSSLHFMVEVKGDLTAKKMVLALLELAQQDHGALDCCVVVILSHGCQASHLQFPGAVYGTDGCPVSVEKIVNIFNGTSCPSLGGKPKLFFIQACGGEQKDHGFEVASTSPEDESPGSNPEPDATPFQEGLRTFDQLAAISSLPTPSDIFVSYSTFPGFVSWRDPKSGSWYVETLDDIFEQWAHSEDLQSLLLRVANAVSVKGIYKQMPGCFNFLRKKLFFKTSGSGATNFSLLKQAGDVEENPG
On to B5, for which the “percent killing in the absence of a scaffolded NS3a” value is recorded as “did not induce Jurkat death”.

B6: hexamer-NS3a: NS3a fused to C-terminus of designed homo-oligomeric helical bundle, hexamer (SEQ ID NO: 43) (protein)
chain: MTEDEIRKLRKLLEEAEKKLKKLEDKTRRSEEISKTDDDPKAQSLQLIAESLMLIAESLLIIAISLLLSSRNGSASGSASMKKKGSVVIVGRINLSGDTAYSQQTRGLEGCQETSQTGRDKNQVEGEVQVVSTATQSFLATSINGVLWTVYHGAGTRTIASPKGPVTQMYTNVDKDLVGWQAPQGSRSLTPCTCGSSDLYLVTRHADVIPVRRRGDSRGSLLSPRPISYLKGSAGGPLLCPAGHAVGIFRAAVSTRGVAKAVDFIPVESLETTMRSP
With B6, for the setting “500 nM grazoprevir”, the “percent killing, NS3a scaffold with GNCR1-casp-9” value is “modest death”.

B7: dimer-NS3a: NS3a fused to C-terminus of designed homo-oligomeric helical bundle, dimer (SEQ ID NO: 42) (protein)
chain: MTRTEIIRELERSLREQEELAKRLKELLRELERLQREGSSDEDVRELLREIKELVEEIEKLAREQKYLVEELKRQDGSASGSASMKKKGSVVIVGRINLSGDTAYSQQTRGLEGCQETSQTGRDKNQVEGEVQVVSTATQSFLATSINGVLWTVYHGAGTRTIASPKGPVTQMYTNVDKDLVGWQAPQGSRSLTPCTCGSSDLYLVTRHADVIPVRRRGDSRGSLLSPRPISYLKGSAGGPLLCPAGHAVGIFRAAVSTRGVAKAVDFIPVESLETTMRSP
In the case of B7, the “percent killing, NS3a scaffold with DNCR2-casp-9” value (500 nM danoprevir) is on record as “comparable killing to iCasp9”.
